This assay addresses hBUBR1 (human (endogenous in HeLa)) (UniProt O60566). In words: co-IP.
UniProt O60566, sequence (O60566 whole entry): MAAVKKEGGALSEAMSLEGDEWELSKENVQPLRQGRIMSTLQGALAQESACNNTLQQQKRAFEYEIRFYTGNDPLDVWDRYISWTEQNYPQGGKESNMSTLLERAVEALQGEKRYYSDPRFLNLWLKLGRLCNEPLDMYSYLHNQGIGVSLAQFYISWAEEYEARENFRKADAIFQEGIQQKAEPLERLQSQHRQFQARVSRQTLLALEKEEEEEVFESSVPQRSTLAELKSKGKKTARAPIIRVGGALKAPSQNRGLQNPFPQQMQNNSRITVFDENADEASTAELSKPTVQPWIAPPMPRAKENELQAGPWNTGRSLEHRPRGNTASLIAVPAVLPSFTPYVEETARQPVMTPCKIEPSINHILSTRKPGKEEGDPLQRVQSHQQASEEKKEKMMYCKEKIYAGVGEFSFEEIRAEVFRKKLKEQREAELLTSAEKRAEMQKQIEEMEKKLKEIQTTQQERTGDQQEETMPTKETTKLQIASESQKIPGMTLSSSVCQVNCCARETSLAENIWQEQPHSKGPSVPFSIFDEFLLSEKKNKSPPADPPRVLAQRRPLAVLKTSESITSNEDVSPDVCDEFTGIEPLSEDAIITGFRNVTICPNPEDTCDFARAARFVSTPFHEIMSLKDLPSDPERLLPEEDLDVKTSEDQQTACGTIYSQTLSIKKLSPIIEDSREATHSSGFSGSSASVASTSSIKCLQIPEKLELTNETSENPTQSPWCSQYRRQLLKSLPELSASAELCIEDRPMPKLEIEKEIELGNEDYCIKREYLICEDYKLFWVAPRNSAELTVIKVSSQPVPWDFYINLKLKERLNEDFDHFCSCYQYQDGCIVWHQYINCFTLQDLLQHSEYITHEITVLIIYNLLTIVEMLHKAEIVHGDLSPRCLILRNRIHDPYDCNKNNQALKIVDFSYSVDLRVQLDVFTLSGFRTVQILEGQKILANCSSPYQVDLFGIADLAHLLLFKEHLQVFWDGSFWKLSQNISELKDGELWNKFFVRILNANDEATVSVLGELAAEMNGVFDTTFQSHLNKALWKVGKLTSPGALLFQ

Broadly, the stoichiometry N is a count of units in the complex or per binding partner. Consider “anaphase-promoting complex/cyclosome (APC/C) from mitotic HeLa cells (from UniProt P30260;Q13042;Q9UJX3)”, for which the stoichiometry N turned out to be 1.

(Values after article PMC2196190.)
